Measurements as given in the supplement of paper PMC9112550, “Optimization of the antimicrobial peptide Bac7 by deep mutational scanning” (BMC Biology, 2022).

System: Escherichia coli TOP10
Test: shrunken log2 fold change of peptide-encoding DNA abundance (4.5 h post-induction vs induction); higher = less antimicrobial activity (less host growth inhibition)
Conditions: time post-induction: 4.5 h; library: site-saturation at positions 5, 18, 19, 20
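Also: peptides expressed intracellularly from a pBAD plasmid library in pooled LB shake-flask culture, induced with 0.3% L-arabinose, DNA abundance read by NGS, three biological replicates, DESeq2 with apeglm shrinkage.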

Row | Sequence | shrunken log2 fold change
1 | RRIRGRPPRLPRPRPRPQWRPRP | 0.612
2 | RRIRGRPPRLPRPRPRPQYKPRP | -0.136
3 | RRIRGRPPRLPRPRPRPRAQPRP | 0.778
4 | RRIRGRPPRLPRPRPRPRATPRP | 1.72
5 | RRIRGRPPRLPRPRPRPRCHPRP | 0.564
6 | RRIRGRPPRLPRPRPRPRDKPRP | 0.373
7 | RRIRGRPPRLPRPRPRPRECPRP | 0.562
8 | RRIRGRPPRLPRPRPRPREWPRP | 0.843
9 | RRIRGRPPRLPRPRPRPRHCPRP | 0.764
10 | RRIRGRPPRLPRPRPRPRHFPRP | 0.379
11 | RRIRGRPPRLPRPRPRPRHSPRP | 0.242
12 | RRIRGRPPRLPRPRPRPRKFPRP | 0.399
13 | RRIRGRPPRLPRPRPRPRKWPRP | 0.413
14 | RRIRGRPPRLPRPRPRPRLTPRP | 0.948
15 | RRIRGRPPRLPRPRPRPRRKPRP | 0.742
16 | RRIRGRPPRLPRPRPRPRSWPRP | 1.19
17 | RRIRGRPPRLPRPRPRPRTSPRP | 0.763
18 | RRIRGRPPRLPRPRPRPRVYPRP | 0.35
19 | RRIRGRPPRLPRPRPRPRWIPRP | 0.152
20 | RRIRGRPPRLPRPRPRPRWMPRP | 0.297
21 | RRIRGRPPRLPRPRPRPRYLPRP | 0.282
22 | RRIRGRPPRLPRPRPRPSAMPRP | 0.989

Row | Sequence | shrunken log2 fold change
23 | RRIRGRPPRLPRPRPRPSCLPRP | 0.571
24 | RRIRGRPPRLPRPRPRPSCQPRP | 0.925
25 | RRIRGRPPRLPRPRPRPSDQPRP | 0.796
26 | RRIRGRPPRLPRPRPRPSEKPRP | 1.49
27 | RRIRGRPPRLPRPRPRPSFIPRP | -0.166
28 | RRIRGRPPRLPRPRPRPSFYPRP | 0.00205
29 | RRIRGRPPRLPRPRPRPSHVPRP | -0.141
30 | RRIRGRPPRLPRPRPRPSIAPRP | 0.669
31 | RRIRGRPPRLPRPRPRPSLCPRP | 1.73
32 | RRIRGRPPRLPRPRPRPSPKPRP | 0.619
33 | RRIRGRPPRLPRPRPRPSPPPRP | 0.569
34 | RRIRGRPPRLPRPRPRPSQLPRP | 0.461
35 | RRIRGRPPRLPRPRPRPSQTPRP | 1.08
36 | RRIRGRPPRLPRPRPRPSSEPRP | 0.351
37 | RRIRGRPPRLPRPRPRPSTDPRP | 0.899
38 | RRIRGRPPRLPRPRPRPSTTPRP | 0.875
39 | RRIRGRPPRLPRPRPRPSYHPRP | -0.299
40 | RRIRGRPPRLPRPRPRPTACPRP | 1.35
41 | RRIRGRPPRLPRPRPRPTAWPRP | 1.84
42 | RRIRGRPPRLPRPRPRPTCNPRP | 0.7
43 | RRIRGRPPRLPRPRPRPTDKPRP | 0.705
44 | RRIRGRPPRLPRPRPRPTDSPRP | 0.526

Row | Sequence | shrunken log2 fold change
45 | RRIRGRPPRLPRPRPRPTEGPRP | 0.795
46 | RRIRGRPPRLPRPRPRPTFWPRP | 1.51
47 | RRIRGRPPRLPRPRPRPTHGPRP | 0.487
48 | RRIRGRPPRLPRPRPRPTKIPRP | 0.462
49 | RRIRGRPPRLPRPRPRPTKLPRP | 0.38
50 | RRIRGRPPRLPRPRPRPTKNPRP | 0.69
51 | RRIRGRPPRLPRPRPRPTMSPRP | 0.496
52 | RRIRGRPPRLPRPRPRPTMYPRP | 0.032
53 | RRIRGRPPRLPRPRPRPTNWPRP | 0.485
54 | RRIRGRPPRLPRPRPRPTQIPRP | 1.38
55 | RRIRGRPPRLPRPRPRPTRYPRP | 0.357
56 | RRIRGRPPRLPRPRPRPTSIPRP | 0.129
57 | RRIRGRPPRLPRPRPRPTSTPRP | 1.05
58 | RRIRGRPPRLPRPRPRPTTEPRP | 0.836
59 | RRIRGRPPRLPRPRPRPTWEPRP | 0.031
60 | RRIRGRPPRLPRPRPRPTWMPRP | 0.599
61 | RRIRGRPPRLPRPRPRPTWWPRP | 0.906
62 | RRIRGRPPRLPRPRPRPTYRPRP | 0.138
63 | RRIRGRPPRLPRPRPRPTYSPRP | -0.0883
64 | RRIRGRPPRLPRPRPRPTYTPRP | 0.249
65 | RRIRGRPPRLPRPRPRPVAPPRP | 1.18
66 | RRIRGRPPRLPRPRPRPVAQPRP | 0.719

Row | Sequence | shrunken log2 fold change
67 | RRIRGRPPRLPRPRPRPVCDPRP | 0.959
68 | RRIRGRPPRLPRPRPRPVCQPRP | 0.664
69 | RRIRGRPPRLPRPRPRPVDVPRP | 0.447
70 | RRIRGRPPRLPRPRPRPVFEPRP | 1.16
71 | RRIRGRPPRLPRPRPRPVFWPRP | 0.768
72 | RRIRGRPPRLPRPRPRPVGNPRP | 0.204
73 | RRIRGRPPRLPRPRPRPVHSPRP | 0.0124
74 | RRIRGRPPRLPRPRPRPVIRPRP | 0.177
75 | RRIRGRPPRLPRPRPRPVLCPRP | 0.635
76 | RRIRGRPPRLPRPRPRPVLPPRP | 0.383
77 | RRIRGRPPRLPRPRPRPVMWPRP | 0.932
78 | RRIRGRPPRLPRPRPRPVNNPRP | -0.0355
79 | RRIRGRPPRLPRPRPRPVPAPRP | 1
80 | RRIRGRPPRLPRPRPRPVRAPRP | 1.01
81 | RRIRGRPPRLPRPRPRPVSAPRP | 0.676
82 | RRIRGRPPRLPRPRPRPVYLPRP | -0.33
83 | RRIRGRPPRLPRPRPRPVYYPRP | 0.164
84 | RRIRGRPPRLPRPRPRPWCNPRP | -0.276
85 | RRIRGRPPRLPRPRPRPWCPPRP | 0.236
86 | RRIRGRPPRLPRPRPRPWDNPRP | -0.0364
87 | RRIRGRPPRLPRPRPRPWDWPRP | 1.2
88 | RRIRGRPPRLPRPRPRPWEPPRP | 0.177

Row | Sequence | shrunken log2 fold change
89 | RRIRGRPPRLPRPRPRPWEWPRP | 0.911
90 | RRIRGRPPRLPRPRPRPWFKPRP | -0.824
91 | RRIRGRPPRLPRPRPRPWFLPRP | -0.149
92 | RRIRGRPPRLPRPRPRPWFTPRP | -0.221
93 | RRIRGRPPRLPRPRPRPWGIPRP | 0.0344
94 | RRIRGRPPRLPRPRPRPWHCPRP | -0.0173
95 | RRIRGRPPRLPRPRPRPWIDPRP | -0.103
96 | RRIRGRPPRLPRPRPRPWIEPRP | -0.0591
97 | RRIRGRPPRLPRPRPRPWIKPRP | -0.0249
98 | RRIRGRPPRLPRPRPRPWISPRP | -0.191
99 | RRIRGRPPRLPRPRPRPWKRPRP | -0.0496
100 | RRIRGRPPRLPRPRPRPWMCPRP | -0.13
101 | RRIRGRPPRLPRPRPRPWPMPRP | 0.31
102 | RRIRGRPPRLPRPRPRPWQEPRP | -0.0457
103 | RRIRGRPPRLPRPRPRPWQGPRP | 0.015
104 | RRIRGRPPRLPRPRPRPWQNPRP | 0.041
105 | RRIRGRPPRLPRPRPRPWQPPRP | -0.12
106 | RRIRGRPPRLPRPRPRPWRHPRP | -0.0287
107 | RRIRGRPPRLPRPRPRPWTDPRP | -0.211
108 | RRIRGRPPRLPRPRPRPWTGPRP | -0.0411
109 | RRIRGRPPRLPRPRPRPWTVPRP | -0.0833
